Data: paper PMC10397247

Assays:
Experiment in all cases: two-hybrid library CCmax;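 further: natural log of median RNA to DNA barcode read ratio; higher means stronger binding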
APC2474-AA = molecular target: T1, APC2474-AA
T1 chain: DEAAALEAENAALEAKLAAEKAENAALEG

APC2543-AA = molecular target: T2, APC2543-AA; settings: mean of both orientations
T2 chain: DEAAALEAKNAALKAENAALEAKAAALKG

APC2556-AA = molecular target: T3, APC2556-AA; settings: mean of both orientations
T3 chain: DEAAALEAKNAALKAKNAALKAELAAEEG

APC2724-AA = molecular target: T4, APC2724-AA; settings: mean of both orientations
T4 chain: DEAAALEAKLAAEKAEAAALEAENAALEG

APC2811-AA = molecular target: T5, APC2811-AA; settings: mean of both orientations
T5 chain: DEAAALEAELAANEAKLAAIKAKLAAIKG

APC2981-AA = molecular target: T6, APC2981-AA; settings: mean of both orientations
T6 chain: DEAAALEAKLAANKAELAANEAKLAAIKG

APC3265-AA = molecular target: T7, APC3265-AA; settings: mean of both orientations
T7 chain: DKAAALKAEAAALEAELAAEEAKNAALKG

APC3323-AA = molecular target: T8, APC3323-AA; settings: mean of both orientations
T8 chain: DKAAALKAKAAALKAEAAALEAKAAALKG

APC3354-AA = molecular target: T9, APC3354-AA; settings: mean of both orientations
T9 chain: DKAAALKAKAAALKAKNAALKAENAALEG

APC3881-AA = molecular target: T10, APC3881-AA; settings: mean of both orientations
T10 chain: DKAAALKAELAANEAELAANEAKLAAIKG

APC4100-AA = molecular target: T11, APC4100-AA; settings: mean of both orientations
T11 chain: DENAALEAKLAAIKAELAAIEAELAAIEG

APC4336-AA = molecular target: T12, APC4336-AA; settings: mean of both orientations
T12 chain: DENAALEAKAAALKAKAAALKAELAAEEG

APC5009-AA = molecular target: T13, APC5009-AA; settings: mean of both orientations
T13 chain: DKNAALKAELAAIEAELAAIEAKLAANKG

APC542-AA = molecular target: T14, APC542-AA; settings: mean of both orientations
T14 chain: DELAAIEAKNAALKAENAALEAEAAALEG

APC5531-AA = molecular target: T15, APC5531-AA; settings: mean of both orientations
T15 chain: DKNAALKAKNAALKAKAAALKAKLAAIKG

APC6088-AA = molecular target: T16, APC6088-AA; settings: mean of both orientations
T16 chain: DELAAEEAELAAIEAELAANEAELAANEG

APC7524-AA = molecular target: T17, APC7524-AA; settings: mean of both orientations
T17 chain: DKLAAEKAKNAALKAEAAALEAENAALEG

APC8401-AA = molecular target: T18, APC8401-AA; settings: mean of both orientations
T18 chain: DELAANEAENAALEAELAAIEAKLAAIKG

APC8516-AA = molecular target: T19, APC8516-AA; settings: mean of both orientations
T19 chain: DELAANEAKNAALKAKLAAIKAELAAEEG

APC9141-AA = molecular target: T20, APC9141-AA; settings: mean of both orientations
T20 chain: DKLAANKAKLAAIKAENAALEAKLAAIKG

APC9182-AA = molecular target: T21, APC9182-AA; settings: mean of both orientations
T21 chain: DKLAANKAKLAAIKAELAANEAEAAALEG

APC9291-AA = molecular target: T22, APC9291-AA; settings: mean of both orientations
T22 chain: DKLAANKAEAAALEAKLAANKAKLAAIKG

APC9806-AA = molecular target: T23, APC9806-AA; settings: mean of both orientations
T23 chain: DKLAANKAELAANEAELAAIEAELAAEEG

- interaction score (APC2474-AA): -1.69
- interaction score (APC2543-AA): -1.61
- interaction score (APC2556-AA): -1.49
- interaction score (APC2724-AA): -1.93
- interaction score (APC2811-AA): -1.58
- interaction score (APC2981-AA): -1.45
- interaction score (APC3265-AA): -1.52
- interaction score (APC3323-AA): -1.45
- interaction score (APC3354-AA): -1.35
- interaction score (APC3881-AA): -1.83
- interaction score (APC4100-AA): -1.97
- interaction score (APC4336-AA): -1.67
- interaction score (APC5009-AA): -1.39
- interaction score (APC542-AA): -1.4
- interaction score (APC5531-AA): -1.71
- interaction score (APC6088-AA): -1.54
- interaction score (APC7524-AA): -2.27
- interaction score (APC8401-AA): -1.53
- interaction score (APC8516-AA): -1.93
- interaction score (APC9141-AA): -2.1
- interaction score (APC9182-AA): -1.69
- interaction score (APC9291-AA): -1.71
- interaction score (APC9806-AA): -1.64
B1: APC2474-AA (peptide)
chain: DEAAALEAENAALEAKLAAEKAENAALEG
